The chains are these.
B1: IAPP A2 (dsDNA)
DNA 1: ATGAGTTAATGTAATA
DNA 2: TATTACATTAACTCAT
B2: Insulin E1 (dsDNA)
DNA 1: AGCCATCTGCCGACCC
DNA 2: GGGTCGGCAGATGGCT
B3: Insulin A3 (dsDNA)
DNA 1: AGACTCTAATGACCCG
DNA 2: CGGGTCATTAGAGTCT
B4: Insulin A1 (dsDNA)
DNA 1: AGGCCCTAATGGGCCA
DNA 2: TGGCCCATTAGGGCCT
B5: IAPP A1 (dsDNA)
DNA 1: GGAAATTAATGACAGA
DNA 2: TCTGTCATTAATTTCC

The source of these data is article PMC3800017.

Chain of Pdx1 homeodomain (Pdx1-HD) (P52945 146-206): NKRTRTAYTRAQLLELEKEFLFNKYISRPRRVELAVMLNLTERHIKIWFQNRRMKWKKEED

The data set concerns the target Pdx1 homeodomain (Pdx1-HD) (Homo sapiens, UniProt P52945 146-206). Description: ITC. (Isothermal titration calorimetry measures the heat released or taken up as one component is titrated into another.)
B1 returned an equilibrium dissociation constant (Kd) of 27 ± 7 nM.
Consider B2, for which the Kd came to 1300 ± 300 nM.
Molecule B3 had a Kd of 4 ± 1 nM.
Regarding B4, the affinity, expressed as Kd, was 7 ± 2 nM.
Under B5 stands 22 ± 5 nM.

The Kd is the free concentration of one partner at which half of the binding sites on the other are occupied at equilibrium, for simple one-to-one binding. Higher therefore signals lower affinity.
